Where a chain is given by its changes, count along the chain named. Numbers in names are those of the source.
What was measured:
Assay type in all cases: cell-based, human
[1] = test system: wild-type and variant SNAP-GIPR; experiment: Surface SNAP-GIPR expression (SNAP-tag labelling) in AD293 cells; conditions: for AD293 Surface: Fig S3E, mean; for Surface SNAP-GIPR expression: sheet Fig 1C;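 for all read-outs here: scaled to the experimental average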
Summary of the method: (§1)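 Surface GIPR is quantified from wide-field images after labelling intact transfected cells with a membrane-impermeant SNAP probe at 500 nM for 10 min at room temperature. Specific signal, corrected for nontransfected cells, is normalized to the experiment-wide average or to wild-type.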

[2] = test system: wild-type and variant SNAP-GIPR; experiment: Surface SNAP-GIPR expression (SNAP-tag labelling) in INS-1 cells; conditions: Fig 4G; Mean
Summary of the method: as §1

[3] = test system: wild-type and variant SNAP-GIPR; experiment: Constitutive and agonist-mediated internalization, reversible SNAP-tag labelling, INS-1 cells; set-up: key to Internalisation, GIP-only / Internalisation, Vehicle / Internalisation, +GIP: % internalization: residual fluorescence after Mesna vs pre-Mesna; conditions: Mean; for +GIP internalisation (100 nM) / GIP-specific internalisation (100 nM) / Constitutive internalisation (100 nM): Fig 4G; for +GIP internalisation (100 nM) / GIP-specific internalisation (100 nM): GIP 100 nM; for Internalisation, +GIP / Internalisation, GIP-only / Internalisation, Vehicle: Fig S4C, INS-1
Summary of the method: (§2)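 Surface SNAP-GIPR signal removable by Mesna was tracked by imaging before and 10 min after treatment in pH 8.6 TNE buffer. Internalization is the Mesna-resistant share of specific fluorescence.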

[4] = test system: wild-type and variant SNAP-GIPR; experiment: Single-concentration GIP cAMP response by HTRF in INS-1 cells; conditions: Fig S3E, mean
Protocol: (§3) All variants were tested in parallel on each occasion to control for transfection efficiency differences between experiments.

[5] = test system: wild-type and variant SNAP-GIPR; experiment: Constitutive and agonist-mediated internalization, reversible SNAP-tag labelling, AD293 cells; set-up: key to Internalisation, Vehicle / Internalisation, +GIP / Internalisation, GIP-only: % internalization: residual fluorescence after Mesna vs pre-Mesna; Surface expression: unit not given here; conditions: Mean; for +GIP internalisation (100 nM) / GIP-specific internalisation (100 nM) / Constitutive internalisation (100 nM) / Surface expression: Fig 4E; for +GIP internalisation (100 nM) / GIP-specific internalisation (100 nM): GIP 100 nM; for Internalisation, +GIP / Internalisation, GIP-only / Internalisation, Vehicle: Fig S4C, AD293
Summary of the method: as §2

[6] = test system: wild-type and variant SNAP-GIPR; experiment: cADDis cAMP imaging in AD293 cells, ensemble, expression-matched and per decile; conditions: Fig S3F, cADDis, mean;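 note: Ensemble cells as % of IBMX/FSK response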
Summary of the method: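 Variants and wild type ran in parallel in transfected AD293 cells carrying cADDis. Single-cell sensor intensity, with nonresponders to IBMX/FSK removed, was paired with SNAP-Surface 647 labeling to allow expression-matched analysis.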

[7] = test system: wild-type and variant SNAP-GIPR; experiment: Single-concentration GIP cAMP response by HTRF in AD293 cells; conditions: Fig S3F, HTRF, mean;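 note: ratio to experiment-wide average response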
Protocol: as §3

[8] = column repeated, paired with cAMP 100 nM

B1: D66G (protein, UniProt P48546 22-466, looked up, variant D66G)
Gastric inhibitory …: RAETGSKGQTAGELYQRWERYRRECQETLAAAEPPSGLACNGSFGMYVCWDYAAPNATARASCPWYLPWHHHVAAGFVLRQCGSDGQWGLWRDHTQCENPEKNEAFLDQRLILERLQVMYTVGYSLSLATLLLALLILSLFRRLHCTRNYIHINLFTSFMLRAAAILSRDRLLPRPGPYLGDQALALWNQALAACRTAQIVTQYCVGANYTWLLVEGVYLHSLLVLVGGSEEGHFRYYLLLGWGAPALFVIPWVIVRYLYENTQCWERNEVKAIWWIIRTPILMTILINFLIFIRILGILLSKLRTRQMRCRDYRLRLARSTLTLVPLLGVHEVVFAPVTEEQARGALRFAKLGFEIFLSSFQGFLVSVLYCFINKEVQSEIRRGWHHCRLRRSLGEEQRQLPERAFRALPSGSGPGEVPTSRGLSSGTLPGPGNEASRELESYC
[1]; [8]
  AD293 Surface: 0.2845
[1]; paired with cAMP 100 pM
  AD293 Surface: 0.2845
[1]; replicate 1
  Surface SNAP-GIPR expression: 0.2625
[1]; replicate 2
  Surface SNAP-GIPR expression: 0.397
[1]; replicate 3
  Surface SNAP-GIPR expression: 0.1659
[1]; replicate 4
  Surface SNAP-GIPR expression: 0.02117
[1]; replicate 5
  Surface SNAP-GIPR expression: 0.3372
[1]; replicate 6
  Surface SNAP-GIPR expression: 0.161
[1]; replicate 7
  Surface SNAP-GIPR expression: 0.3578
[1]; replicate 8
  Surface SNAP-GIPR expression: 0.377
[1]; replicate 9
  Surface SNAP-GIPR expression: 0.35
[1]; replicate 10
  Surface SNAP-GIPR expression: 0.5096
[1]; replicate 11
  Surface SNAP-GIPR expression: 0.4534
[1]; replicate 12
  Surface SNAP-GIPR expression: 0.5149
[1]; replicate 13
  Surface SNAP-GIPR expression: 0.197
[1]; replicate 14
  Surface SNAP-GIPR expression: 0.2293
[1]; replicate 15
  Surface SNAP-GIPR expression: 0.3425
[1]; replicate 16
  Surface SNAP-GIPR expression: 0.4052
[1]; replicate 17
  Surface SNAP-GIPR expression: 0.4309
[1]; replicate 18
  Surface SNAP-GIPR expression: 0.3854
[1]; replicate 19
  Surface SNAP-GIPR expression: 0.4111
[1]; replicate 20
  Surface SNAP-GIPR expression: 0.3991
[1]; replicate 21
  Surface SNAP-GIPR expression: 0.5534
[1]; replicate 22
  Surface SNAP-GIPR expression: 0.4128
[1]; replicate 23
  Surface SNAP-GIPR expression: 0.3708
[1]; replicate 24
  Surface SNAP-GIPR expression: 0.3827
[1]; replicate 25
  Surface SNAP-GIPR expression: 0.2399
[1]; replicate 26
  Surface SNAP-GIPR expression: 0.2568
[1]; replicate 27
  Surface SNAP-GIPR expression: 0.1279
[1]; replicate 28
  Surface SNAP-GIPR expression: 0.1278
[1]; replicate 29
  Surface SNAP-GIPR expression: 0.1867
[1]; replicate 30
  Surface SNAP-GIPR expression: 0.2491
[1]; replicate 31
  Surface SNAP-GIPR expression: 0.2077
[1]; replicate 32
  Surface SNAP-GIPR expression: 0.1171
[1]; replicate 33
  Surface SNAP-GIPR expression: 0.1153
[1]; replicate 34
  Surface SNAP-GIPR expression: 0.2022
[1]; replicate 35
  Surface SNAP-GIPR expression: 0.2952
[1]; replicate 36
  Surface SNAP-GIPR expression: 0.2071
[1]; replicate 37
  Surface SNAP-GIPR expression: 0.2146
[1]; replicate 38
  Surface SNAP-GIPR expression: 0.1357
[1]; replicate 39
  Surface SNAP-GIPR expression: 0.1562
[1]; replicate 40
  Surface SNAP-GIPR expression: 0.1831
[1]; replicate 41
  Surface SNAP-GIPR expression: 0.2136
[2]
  Surface expression: 0.1735
[3]
  +GIP internalisation (100 nM): 0.08951
  GIP-specific internalisation (100 nM): -0.01151
  Constitutive internalisation (100 nM): 0.101
  Internalisation, +GIP: 50.62
  Internalisation, GIP-only: -7.618
  Internalisation, Vehicle: 58.2383
[4]
  INS-1 cAMP (100 nM): -0.2661
[5]
  +GIP internalisation (100 nM): 0.106
  GIP-specific internalisation (100 nM): -0.001031
  Constitutive internalisation (100 nM): 0.1071
  Surface expression: 0.1742
  Internalisation, +GIP: 61.627
  Internalisation, GIP-only: -0.8775
  Internalisation, Vehicle: 62.5045
[6]
  AD293 100 pM cADDis: -0.704
  AD293 100 nM cADDis: 4.118
[7]
  AD293 100 pM HTRF: 0.1227
  AD293 100 nM HTRF: 0.328

B2: R341P (protein, UniProt P48546 22-466, looked up, variant R341P)
Gastric inhibitory …: B1 Gastric inhibitory … with G45D, R320P
[1]; [8]
  AD293 Surface: 0.2494
[1]; paired with cAMP 100 pM
  AD293 Surface: 0.2494
[1]; replicate 1
  Surface SNAP-GIPR expression: 0.3004
[1]; replicate 2
  Surface SNAP-GIPR expression: 0.416
[1]; replicate 3
  Surface SNAP-GIPR expression: 0.1222
[1]; replicate 4
  Surface SNAP-GIPR expression: 0.3179
[1]; replicate 5
  Surface SNAP-GIPR expression: 0.375
[1]; replicate 6
  Surface SNAP-GIPR expression: 0.2191
[1]; replicate 7
  Surface SNAP-GIPR expression: 0.3629
[1]; replicate 8
  Surface SNAP-GIPR expression: 0.2975
[1]; replicate 9
  Surface SNAP-GIPR expression: 0.196
[1]; replicate 10
  Surface SNAP-GIPR expression: 0.2642
[1]; replicate 11
  Surface SNAP-GIPR expression: 0.31
[1]; replicate 12
  Surface SNAP-GIPR expression: 0.2856
[1]; replicate 13
  Surface SNAP-GIPR expression: 0.6221
[1]; replicate 14
  Surface SNAP-GIPR expression: 0.2061
[1]; replicate 15
  Surface SNAP-GIPR expression: 0.2357
[1]; replicate 16
  Surface SNAP-GIPR expression: 0.2383
[1]; replicate 17
  Surface SNAP-GIPR expression: 0.211
[1]; replicate 18
  Surface SNAP-GIPR expression: 0.144
[1]; replicate 19
  Surface SNAP-GIPR expression: 0.3559
[1]; replicate 20
  Surface SNAP-GIPR expression: 0.2316
[1]; replicate 21
  Surface SNAP-GIPR expression: 0.2368
[1]; replicate 22
  Surface SNAP-GIPR expression: 0.1783
[1]; replicate 23
  Surface SNAP-GIPR expression: 0.2272
[1]; replicate 24
  Surface SNAP-GIPR expression: 0.2138
[1]; replicate 25
  Surface SNAP-GIPR expression: 0.2383
[1]; replicate 26
  Surface SNAP-GIPR expression: 0.2262
[1]; replicate 27
  Surface SNAP-GIPR expression: 0.2274
[1]; replicate 28
  Surface SNAP-GIPR expression: 0.2002
[1]; replicate 29
  Surface SNAP-GIPR expression: 0.197
[1]; replicate 30
  Surface SNAP-GIPR expression: 0.3017
[1]; replicate 31
  Surface SNAP-GIPR expression: 0.1334
[1]; replicate 32
  Surface SNAP-GIPR expression: 0.2186
[1]; replicate 33
  Surface SNAP-GIPR expression: 0.2522
[1]; replicate 34
  Surface SNAP-GIPR expression: 0.2282
[1]; replicate 35
  Surface SNAP-GIPR expression: 0.2532
[1]; replicate 36
  Surface SNAP-GIPR expression: 0.1015
[1]; replicate 37
  Surface SNAP-GIPR expression: 0.1446
[1]; replicate 38
  Surface SNAP-GIPR expression: 0.2212
[1]; replicate 39
  Surface SNAP-GIPR expression: 0.2317
[1]; replicate 40
  Surface SNAP-GIPR expression: 0.2075
[1]; replicate 41
  Surface SNAP-GIPR expression: 0.2741
[2]
  Surface expression: 0.2942
[3]
  +GIP internalisation (100 nM): 0.1423
  GIP-specific internalisation (100 nM): 0.02008
  Constitutive internalisation (100 nM): 0.1222
  Internalisation, +GIP: 48.645
  Internalisation, GIP-only: 6.527
  Internalisation, Vehicle: 42.1183
[4]
  INS-1 cAMP (100 nM): -0.2249
[5]
  +GIP internalisation (100 nM): 0.1278
  GIP-specific internalisation (100 nM): 0.02136
  Constitutive internalisation (100 nM): 0.1065
  Surface expression: 0.1733
  Internalisation, +GIP: 72.1567
  Internalisation, GIP-only: 15.7264
  Internalisation, Vehicle: 56.4303
[6]
  AD293 100 pM cADDis: 0.6137
  AD293 100 nM cADDis: 9.179
[7]
  AD293 100 pM HTRF: 0.001435
  AD293 100 nM HTRF: 0.1915
